The text below walks through data of paper PMC8455074 (Cancer cell, 2020).

Ends that are not written are not given here. * marks the point of attachment. Biotin = O=C1N[C@H]2[C@H](CS[C@H]2CCCCC(=O)*)N1

B1: GST-tagged PALB2 WD40 domain (domain or fragment, UniProt Q86YC2 853-1186, looked up)
chain: GNLQLVSELKNPSGSCSVDVSAMFWERAGCKEPCIITACEDVVSLWKALDAWQWEKLYTWHFAEVPVLQIVPVPDVYNLVCVALGNLEIREIRALFCSSDDESEKQVLLKSGNIKAVLGLTKRRLVSSSGTLSDQQVEVMTFAEDGGGKENQFLMPPEETILTFAEVQGMQEALLGTTIMNNIVIWNLKTGQLLKKMHIDDSYQASVCHKAYSEMGLLFIVLSHPCAKESESLRSPVFQLIVINPKTTLSVGVMLYCLPPGQAGRFLEGDVKDHCAAAILTSGTIAIWDLLLGQCTALLPPVSDQHWSFVKWSGTDSHLLAGQKDGNIFVYHYS

Test [1] concerns the target B1. Briefly: pull-down.
The target of test [2] is T1, His-tagged CXorf67, recombinant (human, UniProt Q86X51 1-503).
T1 sequence (looked up): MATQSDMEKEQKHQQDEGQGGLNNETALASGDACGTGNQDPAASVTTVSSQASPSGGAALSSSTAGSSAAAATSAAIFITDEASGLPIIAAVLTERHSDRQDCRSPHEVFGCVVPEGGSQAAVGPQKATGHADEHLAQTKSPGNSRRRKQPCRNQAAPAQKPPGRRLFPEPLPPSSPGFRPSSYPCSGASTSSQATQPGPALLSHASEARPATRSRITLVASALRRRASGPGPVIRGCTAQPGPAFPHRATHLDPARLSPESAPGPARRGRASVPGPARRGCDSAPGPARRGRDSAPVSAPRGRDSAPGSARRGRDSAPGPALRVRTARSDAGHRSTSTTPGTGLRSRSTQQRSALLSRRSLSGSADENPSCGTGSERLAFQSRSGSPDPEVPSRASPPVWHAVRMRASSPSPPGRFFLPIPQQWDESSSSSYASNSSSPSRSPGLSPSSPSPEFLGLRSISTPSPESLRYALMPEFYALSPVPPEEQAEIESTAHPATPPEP
Briefly: pull-down.

Biotin-GGPIPQQWDESSSSS [biotinylated WT C67 (420-432) peptide]: in test [1], the binding result is listed as “binds”.

Regarding B1, the binding result in test [2] is reported as “binds”.
